Reference: US10500249B2, “Compositions and methods for preventing or treating diseases, conditions, or processes characterized by aberrant fibroblast proliferation and extracellular matrix deposition” (MOERAE MATRIX, INC., priority 2014, dated 2019)

How the values were obtained:
Abl (H396P) (h) = Abl (H396P) (h) (Homo sapiens, UniProt P00519, H396P); test: Kinase Profiling Assay; format: biochemical; details: 100 μM
Outline: (§1)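 Radiometric filter-binding format: cationic substrate takes up labeled phosphate from ATP unless the inhibitor peptide blocks the kinase. Substrate bound to an anionic filter, scintillation-counted, normalized to 100% activity control. Duplicates; part of a 266-kinase selectivity panel for MK2 peptides.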

Aurora-A (h) = target: T1, Aurora-A (h) (Homo sapiens, UniProt O14965); test: Kinase Profiling Assay; format: biochemical; details: 100 μM
T1 sequence (O14965 1-403): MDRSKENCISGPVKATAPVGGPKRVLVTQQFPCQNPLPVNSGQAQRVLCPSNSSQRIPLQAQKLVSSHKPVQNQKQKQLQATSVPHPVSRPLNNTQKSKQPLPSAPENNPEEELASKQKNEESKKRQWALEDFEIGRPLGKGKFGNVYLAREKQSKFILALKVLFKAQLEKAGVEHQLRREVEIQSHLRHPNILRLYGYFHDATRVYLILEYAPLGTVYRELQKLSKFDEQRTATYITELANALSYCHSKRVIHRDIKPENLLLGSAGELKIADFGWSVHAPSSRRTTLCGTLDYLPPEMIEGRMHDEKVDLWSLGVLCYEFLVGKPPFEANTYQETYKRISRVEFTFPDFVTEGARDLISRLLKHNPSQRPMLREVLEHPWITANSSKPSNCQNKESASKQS
Outline: as §1

CK1γ2 (h) = target: T2, CK1γ2 (h) (Homo sapiens, UniProt P78368); test: Kinase Profiling Assay; format: biochemical; details: 100 μM
T2 construct: purchased Millipore
T2 sequence (P78368 whole entry): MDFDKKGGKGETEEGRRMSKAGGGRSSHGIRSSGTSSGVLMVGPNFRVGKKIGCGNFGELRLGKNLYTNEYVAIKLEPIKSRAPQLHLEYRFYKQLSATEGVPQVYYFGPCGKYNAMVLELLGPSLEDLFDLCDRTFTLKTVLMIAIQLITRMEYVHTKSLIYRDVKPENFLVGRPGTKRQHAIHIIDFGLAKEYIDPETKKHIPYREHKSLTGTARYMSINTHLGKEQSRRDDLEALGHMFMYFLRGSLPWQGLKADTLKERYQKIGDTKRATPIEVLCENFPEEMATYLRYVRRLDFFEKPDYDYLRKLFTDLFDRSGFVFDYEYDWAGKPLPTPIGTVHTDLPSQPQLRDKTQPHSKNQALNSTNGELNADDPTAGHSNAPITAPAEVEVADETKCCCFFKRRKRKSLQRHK
Outline: as §1

CK1γ3 (h) = target: T3, CK1γ3 (h) (Homo sapiens, UniProt Q9Y6M4); test: Kinase Profiling Assay; format: biochemical; details: 100 μM
T3 construct: purchased Millipore
T3 sequence (Q9Y6M4 whole entry): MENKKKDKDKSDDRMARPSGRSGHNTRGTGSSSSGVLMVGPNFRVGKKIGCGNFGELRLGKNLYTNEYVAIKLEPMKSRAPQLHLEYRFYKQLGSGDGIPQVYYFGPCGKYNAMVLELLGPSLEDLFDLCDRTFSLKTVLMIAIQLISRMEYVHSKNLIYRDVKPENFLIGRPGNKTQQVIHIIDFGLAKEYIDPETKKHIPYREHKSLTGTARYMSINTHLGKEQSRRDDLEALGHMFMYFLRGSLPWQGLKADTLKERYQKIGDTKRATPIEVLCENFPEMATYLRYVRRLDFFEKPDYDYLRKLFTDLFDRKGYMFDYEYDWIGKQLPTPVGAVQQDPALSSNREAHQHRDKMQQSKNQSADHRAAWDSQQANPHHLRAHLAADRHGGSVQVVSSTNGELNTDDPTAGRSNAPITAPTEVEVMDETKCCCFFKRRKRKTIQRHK
Outline: as §1

Lck (h) = Lck (h) (Homo sapiens, UniProt P06239); test: Kinase Profiling Assay; format: biochemical; details: 100 μM
Sequence of Lck (h) (P06239 whole entry): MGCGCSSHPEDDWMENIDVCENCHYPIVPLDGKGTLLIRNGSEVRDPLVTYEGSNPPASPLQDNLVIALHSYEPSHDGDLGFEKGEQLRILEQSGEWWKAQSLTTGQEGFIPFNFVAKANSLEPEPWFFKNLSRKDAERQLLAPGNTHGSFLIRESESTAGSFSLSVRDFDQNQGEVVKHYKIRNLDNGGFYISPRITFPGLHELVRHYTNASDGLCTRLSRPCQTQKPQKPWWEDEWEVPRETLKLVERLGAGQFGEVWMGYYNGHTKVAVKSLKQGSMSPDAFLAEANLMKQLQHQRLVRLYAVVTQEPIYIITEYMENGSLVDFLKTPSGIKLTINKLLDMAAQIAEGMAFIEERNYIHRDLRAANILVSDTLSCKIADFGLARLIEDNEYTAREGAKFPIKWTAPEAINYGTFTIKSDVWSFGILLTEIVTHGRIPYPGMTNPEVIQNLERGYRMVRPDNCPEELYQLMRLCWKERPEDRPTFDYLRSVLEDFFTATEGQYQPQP
Outline: as §1

c-RAF (h) = target: T4, c-RAF (h) (Homo sapiens, UniProt P04049); test: Kinase Profiling Assay; format: biochemical; details: 100 μM
T4 construct: purchased Millipore
Outline: as §1

PAK6 (h) = target: T5, PAK6 (h) (Homo sapiens, UniProt Q9NQU5); test: Kinase Profiling Assay; format: biochemical; details: 100 μM
T5 construct: purchased Millipore
T5 sequence (Q9NQU5 whole entry): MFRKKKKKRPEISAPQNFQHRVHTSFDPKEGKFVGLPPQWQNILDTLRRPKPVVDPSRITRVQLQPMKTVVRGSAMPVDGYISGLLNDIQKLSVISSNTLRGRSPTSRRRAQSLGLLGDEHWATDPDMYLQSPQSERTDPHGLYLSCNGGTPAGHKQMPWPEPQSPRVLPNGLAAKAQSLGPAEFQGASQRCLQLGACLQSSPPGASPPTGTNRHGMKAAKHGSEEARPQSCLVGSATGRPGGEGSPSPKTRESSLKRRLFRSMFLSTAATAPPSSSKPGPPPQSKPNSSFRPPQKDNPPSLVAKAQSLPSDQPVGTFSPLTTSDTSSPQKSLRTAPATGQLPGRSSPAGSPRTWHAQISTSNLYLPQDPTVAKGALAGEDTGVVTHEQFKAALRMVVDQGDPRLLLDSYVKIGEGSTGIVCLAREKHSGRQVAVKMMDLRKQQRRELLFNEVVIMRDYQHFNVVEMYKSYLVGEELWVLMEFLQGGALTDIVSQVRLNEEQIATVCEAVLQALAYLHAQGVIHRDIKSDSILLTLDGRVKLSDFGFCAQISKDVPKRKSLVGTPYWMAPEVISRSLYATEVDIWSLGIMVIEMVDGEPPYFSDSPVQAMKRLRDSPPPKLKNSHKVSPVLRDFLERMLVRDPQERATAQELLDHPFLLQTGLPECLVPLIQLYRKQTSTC
Outline: as §1

[1] = tested on: bleomycin-induced lung fibrosis; test: Bleomycin mouse model of pulmonary fibrosis (prevention model); format: in vivo, C57BL/6 mice; details: 25, 50 or 75 μg/kg daily IP, day 7 through day 21
Procedure: A mouse model of pulmonary fibrosis was generated by administering 0.025 U of bleomycin/PBS intratracheally to C57BL/6 mice. […] At 21 day post bleomycin delivery (for prevention model) or 28 post bleomycin delivery (for treatment model), groups of mice were sacrificed with a sodium pentobarbital injection (120 mg/kg) and the chest cavity was opened. The right mainstem bronchus was ligated and the right lung was removed. The trachea was cannulated and the left lung was perfused with 4% formaldehyde at 21 cm H2O pressure. The tissue blocks then were embedded in paraffin, and […] sections were prepared for staining. Sections from each animal were stained with hematoxylin and eosin (H&E) to visualize cells or with Masson's Trichrome staining to highlight collagen deposition. […] Stained sections were mounted onto a labeled glass slide with organic mounting medium.
Briefly, fibrotic loci in the lungs of the mice were induced by delivering intratracheally about 0.025 U of bleomycin (dissolved in PBS) to C57BL/6 mice. […] Briefly, mice were sacrificed with a sodium pentobarbital injection (120 mg/kg) and the chest cavity was opened. The right mainstem bronchus was ligated and the right lung was removed. The trachea was cannulated and the left lung was perfused with 4% formaldehyde at 21 cm H2O pressure. The tissue blocks then were embedded in paraffin, and […] sections were prepared, and stained with hematoxylin and eosin (H&E; for pathological examination) or Masson's Trichrome (for collagen staining)
Next, total collagen levels in the lungs of the bleomycin-injured mice (FIG. 12) were analyzed quantitatively by computing a constant conversion factor (7.5) for collagen from hydroxyproline concentrations (Neuman R. and Logan M, J Biol Chem., 186(2):549-56, 1950, incorporated by reference).
Next, the effect of increasing doses of MK2 peptide inhibitors on collagen deposition was examined in vivo using the bleomycin mouse model of idiopathic pulmonary fibrosis (prevention model). Briefly, C57-BL/6 mice were subjected to bleomycin injury at day 0.

CK1γ1 (h) = target: T6, CK1γ1 (h) (Homo sapiens, UniProt Q9HCP0); test: Kinase Profiling Assay; format: biochemical; details: 100 μM
T6 construct: purchased Millipore
T6 sequence (Q9HCP0 whole entry): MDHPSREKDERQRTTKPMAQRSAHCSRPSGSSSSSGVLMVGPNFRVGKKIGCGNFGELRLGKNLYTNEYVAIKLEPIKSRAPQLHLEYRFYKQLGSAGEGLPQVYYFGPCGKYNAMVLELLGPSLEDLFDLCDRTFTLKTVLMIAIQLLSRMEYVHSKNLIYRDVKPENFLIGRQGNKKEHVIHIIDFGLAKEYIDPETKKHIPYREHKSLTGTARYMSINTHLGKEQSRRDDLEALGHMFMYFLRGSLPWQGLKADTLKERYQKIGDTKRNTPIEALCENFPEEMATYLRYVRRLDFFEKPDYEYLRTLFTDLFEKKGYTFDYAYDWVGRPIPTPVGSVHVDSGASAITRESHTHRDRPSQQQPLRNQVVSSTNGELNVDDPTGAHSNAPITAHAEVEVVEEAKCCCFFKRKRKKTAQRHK
Outline: as §1

CLK2 (h) = target: T7, CLK2 (h) (Homo sapiens, UniProt P49760); test: Kinase Profiling Assay; format: biochemical; details: 100 μM
T7 construct: purchased Millipore
T7 sequence (P49760 whole entry): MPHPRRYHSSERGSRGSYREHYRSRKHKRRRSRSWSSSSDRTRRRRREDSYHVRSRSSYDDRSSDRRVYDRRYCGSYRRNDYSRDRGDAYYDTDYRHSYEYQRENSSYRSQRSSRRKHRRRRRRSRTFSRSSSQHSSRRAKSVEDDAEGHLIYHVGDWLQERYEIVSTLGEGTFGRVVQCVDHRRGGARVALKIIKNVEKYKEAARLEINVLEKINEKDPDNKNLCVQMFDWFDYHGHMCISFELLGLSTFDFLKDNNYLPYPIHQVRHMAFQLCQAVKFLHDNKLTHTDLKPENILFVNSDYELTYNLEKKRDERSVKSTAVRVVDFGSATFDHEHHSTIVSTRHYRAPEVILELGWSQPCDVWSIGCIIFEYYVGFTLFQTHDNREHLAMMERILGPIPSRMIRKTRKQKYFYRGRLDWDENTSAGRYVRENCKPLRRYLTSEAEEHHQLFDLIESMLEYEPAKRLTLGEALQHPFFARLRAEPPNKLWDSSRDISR
Outline: as §1

Plk1 (h) = Plk1 (h) (Homo sapiens, UniProt P53350); test: Kinase Profiling Assay; format: biochemical; details: 100 μM
Sequence of Plk1 (h) (P53350 whole entry): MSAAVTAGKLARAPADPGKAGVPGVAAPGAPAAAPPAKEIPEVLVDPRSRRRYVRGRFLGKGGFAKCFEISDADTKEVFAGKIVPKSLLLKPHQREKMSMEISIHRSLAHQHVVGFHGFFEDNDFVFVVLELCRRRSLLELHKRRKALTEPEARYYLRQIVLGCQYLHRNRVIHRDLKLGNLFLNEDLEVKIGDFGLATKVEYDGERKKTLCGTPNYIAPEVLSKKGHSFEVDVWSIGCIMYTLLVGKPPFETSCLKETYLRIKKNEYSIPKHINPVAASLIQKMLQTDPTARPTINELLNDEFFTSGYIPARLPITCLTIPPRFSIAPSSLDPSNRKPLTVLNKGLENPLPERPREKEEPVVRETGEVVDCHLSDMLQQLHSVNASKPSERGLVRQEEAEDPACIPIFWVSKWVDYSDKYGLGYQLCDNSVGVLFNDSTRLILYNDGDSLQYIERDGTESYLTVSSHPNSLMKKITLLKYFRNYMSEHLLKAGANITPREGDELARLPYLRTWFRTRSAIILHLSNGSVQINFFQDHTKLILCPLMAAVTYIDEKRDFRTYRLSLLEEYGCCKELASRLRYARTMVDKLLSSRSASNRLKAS
Outline: as §1

[2] = tested on: human fetal lung fibroblasts (IMR-90), α-SMA; test: TGF-β-induced myofibroblast activation, α-SMA immunoblot; format: cell-based; details: 1 h pre-treatment, then TGF-β1 (2 ng/ml) 48 h
From the text: Cell lysates were immunoblotted against antibodies for α-SMA (a marker for myofibroblast activation) and GAPDH (loading control).

[3] = tested on: human fetal lung fibroblasts (IMR-90), fibronectin; test: TGF-β-mediated fibronectin expression; format: cell-based; details: 1 h pre-treatment, then TGF-β1 (2 ng/ml) 72 h
Procedure: Fibronection was measured as secreted fragments in the conditioned media. Equal amounts (14 μg) of total proteins from the conditioned media were loaded in each lane.

Sequence: FAKLAARLYRKALARQLGVAA [MMI-0300]
- % activity (Abl (H396P) (h)): 101%
- % activity (Aurora-A (h)): 92%
- % activity (CK1γ2 (h)): 123%
- % activity (CK1γ3 (h)): 125%
- % activity (Lck (h)): −2%

Sequence: HRRIKAWLKKIKALARQLGVAA (Mammalian) [MMI-0500]
- % activity (Abl (H396P) (h)): 51%
- % activity (Aurora-A (h)): 110%
- % activity (Lck (h)): 359%
- % activity (c-RAF (h)): 19%

Sequence: KAFAKLAARLYRKALARQLGVAA [MMI-0400]
- % activity (PAK6 (h)): 100%

Sequence: YARAAARQARAKALNRQLGVA (Mammalian) [MMI-0200]
- collagen levels in the lung (Masson's blue trichrome staining), dose response [1]: did not reduce, but rather increased the collagen deposition
- % activity (CK1γ1 (h)): 98%
- % activity (CK1γ3 (h)): 96%
- % activity (CLK2 (h)): 97%
- % activity (Plk1 (h)): 128%
- protein level of α-smooth muscle actin (α-SMA) [2]: no changes in the protein level
- protein level of fibronectin (secreted fragments in conditioned media) [3]: no changes in the protein level
